The stoichiometry N is a count of units in the complex or per binding partner.

Numbering of substitutions follows the chain as printed. Names may count otherwise.

The source of these data is paper PMC10359460, “Structural basis of the T4 bacteriophage primosome assembly and primer synthesis” (Nature Communications, 2023).

B1: T4 bacteriophage gp61 primase (enzyme, UniProt P04520 1-342, looked up)
chain: MSSIPWIDNEFAYRALAHLPKFTQVNNSSTFKLRFRCPVCGDSKTDQNKARGWYYGDNNEGNIHCYNCNYHAPIGIYLKEFEPDLYREYIFEIRKEKGKSRPIEKPKELPKQPEKKIIKSLPSCVRLDKLAEDHPIIKYVKARCIPKDKWKYLWFTTEWPKLVNSIAPGTYKKEISEPRLVIPIYNANGKAESFQGRALKKDAPQKYITIEAYPEATKIYGVERVKDGDVYVLEGPIDSLFIENGIAITGGQLDLEVVPFKDRRVWVLDNEPRHPDTIKRMTKLVDAGERVMFWDKSPWKSKDVNDMIRKEGATPEQIMEYMKNNIAQGLMAKMRLSKYAKI
notes: gp61 primase of T4 bacteriophage, wild type; N-terminal ZBD and C-terminal RPD joined by a linker loop (Lys97 to Lys115); the models hold a resolved full-length primase; also called WT gp61 primase; T4 primase
B2: ssDNA template/pentaribonucleotide primer (DNA:RNA)
DNA: GAATGAGGAGTAGTAGTGAATGTAGTGAGGTAATATCGGCTGGTCTGGTCTGTGCCAAGTTGCTGCAAAA
?: GCCGA
modifications: RNA primer 5'-triphosphate
B3: T4 bacteriophage gp41 helicase (enzyme, UniProt P04530 1-475, looked up)
chain: MVEIILSHLIFDQAYFSKVWPYMDSEYFESGPAKNTFKLIKSHVNEYHSVPSINALNVALENSSFTETEYSGVKTLISKLADSPEDHSWLVKETEKYVQQRAMFNATSKIIEIQTNAELPPEKRNKKMPDVGAIPDIMRQALSISFDSYVGHDWMDDYEARWLSYMNKARKVPFKLRILNKITKGGAETGTLNVLMAGVNVGKSLGLCSLAADYLQLGHNVLYISMEMAEEVCAKRIDANMLDVSLDDIDDGHISYAEYKGKMEKWREKSTLGRLIVKQYPTGGADANTFRSLLNELKLKKNFVPTIIIVDYLGICKSCRIRVYSENSYTTVKAIAEELRALAVETETVLWTAAQVGKQAWDSSDVNMSDIAESAGLPATADFMLAVIETEELAAAEQQLIKQIKSRYGDKNKWNKFLMGVQKGNQKWVEIEQDSTPTEVNEVAGSQQIQAEQNRYQRNESTRAQLDALANELKF
notes: gp41 helicase of T4 bacteriophage, wild type; NTD (globular subdomain and helical hairpin), linking helix and RecA-like CTD; Hexamer assembled with ATPγS; also called WT gp41 helicase; T4 helicase
B4: T4 bacteriophage gp41 helicase E227Q (enzyme, UniProt P04530 1-475, looked up)
chain: B3 chain with E227Q
notes: gp41 helicase of T4 bacteriophage with E227Q in the walker-B motif (no ATP hydrolysis); PDB 8DTP is the wild-type parent; also called gp41(E227Q)

Series [1] deals with T1, gp41 helicase (Tequatrovirus T4, UniProt P04530).
T1 construct: gene 41; full-length, intein fusion self-cleaved, E. coli BL21(DE3); homohexamer, without or with ssDNA
T1 sequence (P04530 1-475): B3 chain
In words: cryo-EM structure. The note with it: five of six nucleotide sites at CTD-CTD interfaces occupied; 5 mM ATPγS, 10 mM MgCl2, pH 7.8; open spiral without ssDNA (8DUO) or with ssDNA (8DUE), closed ring with ssDNA (8DTP). In kind it is binding.

Series [2] concerns the target T2, T4 primosome (gp41 helicase-gp61 primase) (Tequatrovirus T4, UniProt P04530).
T2 construct: gene 41; full-length proteins, intein fusions self-cleaved, E. coli BL21(DE3); 6:1 helicase:primase on ssDNA; with DNA primase
T2 sequence (P04530 1-475): B3 chain
T2 sequence (P04520 1-342 partner): B1 chain
Description: cryo-EM structure. The series is classed as binding. The note with it: WT primosome with ssDNA, closed-ring gp41; 5 mM ATPγS, 10 mM MgCl2, pH 7.8; sites on gp41.

In series [3] the target is B3. Description: cryo-EM structure; step 3: 6 uM gp41 helicase, 5 mM ATPγS, 12 uM ssDNA/RNA primer substrate and 3 uM gp61 primase; 20 mM HEPES pH 7.8, 100 mM NaCl, 10 mM MgCl2, 2 mM DTT; 30 min at room temperature. As to conditions: both partners purified.
In series [4] the target is B4. In words: cryo-EM structure; primosome assembled from gp41 E227Q helicase, WT gp61 primase and the ssDNA/RNA primer substrate; helicase and primase regions refined separately. As to conditions: both partners purified.
Series [5] concerns the target T3, gp41 helicase (Escherichia phage T4 (T4 bacteriophage), UniProt P04530 1-475).
T3 sequence: B3 chain
In words: cryo-EM; ATPgS; open spiral, 10 nt ssDNA held; RNA primer not resolved; Cryo-EM with ATPgS (stated for gp41 and WT primosome); assembly buffer and temperature not in the material; cryo-EM proteins purified in HEPES pH 7.8 buffers. The note with it: protein: recombinant; tags: none (intein tag self-cleaved); chain copies: 6; 70-nt DNA (strand 1) annealed to 5-nt RNA (strand 2) at internal TCGGC; single-stranded DNA on both sides.

Series [6] deals with T4, gp41 helicase;gp61 primase (Escherichia phage T4 (T4 …, UniProt P04530;P04520 1-475;1-342, |)).
T4 sequence 1: B3 chain
T4 sequence 2: B1 chain
In words: cryo-EM; ATPgS; WT primosome pose 1; ssDNA seen, no RNA primer density; Cryo-EM with ATPgS (stated for gp41 and WT primosome); assembly buffer and temperature not in the material; cryo-EM proteins purified in HEPES pH 7.8 buffers. The note with it: protein: recombinant;recombinant; tags: none (intein tag self-cleaved);none (intein tag self-cleaved); chain copies: 6;1; 70-nt DNA (strand 1) annealed to 5-nt RNA (strand 2) at internal TCGGC; single-stranded DNA on both sides.

The target in series [7] is T5, gp41(E227Q) helicase;gp61 primase (Escherichia phage T4 (T4 …, UniProt P04530;P04520 1-475;1-342, E227Q|)).
T5 sequence 1: B3 chain with E227Q
T5 sequence 2: B1 chain
In words: cryo-EM; mutant primosome, post primer synthesis; composite map, RNA/DNA hybrid seen; Cryo-EM with ATPgS (stated for gp41 and WT primosome); assembly buffer and temperature not in the material; cryo-EM proteins purified in HEPES pH 7.8 buffers. The note with it: protein: recombinant;recombinant; tags: none (intein tag self-cleaved);none (intein tag self-cleaved); chain copies: 6;1; 70-nt DNA (strand 1) annealed to 5-nt RNA (strand 2) at internal TCGGC; single-stranded DNA on both sides.

Series [8] concerns the molecule itself. In words: cryo-EM structure; step 1: 6 uM gp41 helicase with 5 mM ATPγS, no DNA; 20 mM HEPES pH 7.8, 100 mM NaCl, 10 mM MgCl2, 2 mM DTT; 30 min at room temperature.
Series [9] deals with the molecule itself. Description: cryo-EM structure; primosome assembled from gp41 E227Q helicase, WT gp61 primase and the ssDNA/RNA primer substrate; helicase and primase regions refined separately.

Take `Nc1ncnc2c1ncn2[C@@H]1O[C@H](COP(=O)(O)OP(=O)(O)OP(O)(O)=S)[C@@H](O)[C@H]1O` [ATPγS]: the cryo-EM structure entry is “five nucleotide binding pockets at the subunit interfaces occupied with ATPγS molecules” in series [1]; “observed in the T4 primosome in the presence of ssDNA and ATPγS” in series [2].

Take B1: in series [3], the “stoichiometry N” value was 1 gp61 primase per gp41 helicase hexamer. Moreover, the binding result in [4] was “binds”.

B2: the binding result in series [5], in series [6] and in [7] was “binds” in each case.

In the case of B3, the “stoichiometry N” value in series [8] is 6 subunits.

Turning to B4, the binding result in [9] is reported as “binds”.
